Reference: patent US20240124881

Target: T1, DHX36 (Mus musculus) (UniProt Q8VHK9)
T1 sequence: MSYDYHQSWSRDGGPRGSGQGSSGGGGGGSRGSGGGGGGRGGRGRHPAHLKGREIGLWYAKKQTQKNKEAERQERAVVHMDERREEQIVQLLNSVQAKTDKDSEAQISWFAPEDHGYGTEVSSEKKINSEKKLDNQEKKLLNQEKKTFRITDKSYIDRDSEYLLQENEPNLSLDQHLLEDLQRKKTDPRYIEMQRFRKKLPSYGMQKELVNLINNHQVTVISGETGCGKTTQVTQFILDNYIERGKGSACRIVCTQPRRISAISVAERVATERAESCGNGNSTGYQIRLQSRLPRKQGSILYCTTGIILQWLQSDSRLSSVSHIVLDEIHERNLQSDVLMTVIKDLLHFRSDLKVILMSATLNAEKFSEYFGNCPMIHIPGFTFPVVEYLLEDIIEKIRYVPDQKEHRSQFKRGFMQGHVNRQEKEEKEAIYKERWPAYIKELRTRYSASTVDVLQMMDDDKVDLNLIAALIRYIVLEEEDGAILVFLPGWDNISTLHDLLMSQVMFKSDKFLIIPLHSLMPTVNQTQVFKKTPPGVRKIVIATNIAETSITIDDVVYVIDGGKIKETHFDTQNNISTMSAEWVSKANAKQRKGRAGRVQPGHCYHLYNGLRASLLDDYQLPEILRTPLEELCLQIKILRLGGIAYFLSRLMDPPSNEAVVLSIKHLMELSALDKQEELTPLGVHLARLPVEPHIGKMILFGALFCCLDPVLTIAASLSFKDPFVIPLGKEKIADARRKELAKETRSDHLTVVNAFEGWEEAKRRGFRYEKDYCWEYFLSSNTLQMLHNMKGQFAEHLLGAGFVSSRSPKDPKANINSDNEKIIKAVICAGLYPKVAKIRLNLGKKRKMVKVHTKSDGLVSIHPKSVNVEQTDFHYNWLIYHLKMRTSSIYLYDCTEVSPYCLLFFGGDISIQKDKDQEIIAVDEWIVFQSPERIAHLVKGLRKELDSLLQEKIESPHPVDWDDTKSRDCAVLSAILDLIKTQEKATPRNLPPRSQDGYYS
Test: pulldown
Conditions: N2a lysate, mass spectrometry; threshold criterion

Substance: Chaserr Exon5-MC
- binding signal (fold lower recovery than WT): > 2
